Experimental data reported in IntAct's records for PubMed 31515488.

B1: Tuftelin-interacting protein 11 (Homo sapiens), Q9UBB9 (parent)
chain: MSLSHLYRDGEGRIDDDDDERENFEITDWDLQNEFNPNRQRHWQTKEEATYGVWAERDSDDERPSFGGKRARDYSAPVNFISAGLKKGAAEEAELEDSDDEEKPVKQDDFPKDFGPRKLKTGGNFKPSQKGFAGGTKSFMDFGSWERHTKGIGQKLLQKMGYVPGRGLGKNAQGIINPIEAKQRKGKGAVGAYGSERTTQSMQDFPVVDSEEEAEEEFQKELSQWRKDPSGSKKKPKYSYKTVEELKAKGRISKKLTAPQKELSQVKVIDMTGREQKVYYSYSQISHKHNVPDDGLPLQSQQLPQSGKEAKAPGFALPELEHNLQLLIDLTEQEIIQNDRQLQYERDMVVNLFHELEKMTEVLDHEERVISNLSKVLEMVEECERRMQPDCSNPLTLDECARIFETLQDKYYEEYRMSDRVDLAVAIVYPLMKEYFKEWDPLKDCTYGTEIISKWKSLLENDQLLSHGGQDLSADAFHRLIWEVWMPFVRNIVTQWQPRNCDPMVDFLDSWVHIIPVWILDNILDQLIFPKLQKEVENWNPLTDTVPIHSWIHPWLPLMQARLEPLYSPIRSKLSSALQKWHPSDSSAKLILQPWKDVFTPGSWEAFMVKNIVPKLGMCLGELVINPHQQHMDAFYWVIDWEGMISVSSLVGLLEKHFFPKWLQVLCSWLSNSPNYEEITKWYLGWKSMFSDQVLAHPSVKDKFNEALDIMNRAVSSNVGAYMQPGARENIAYLTHTERRKDFQYEAMQERREAENMAQRGIGVAASSVPMNFKDLIETKAEEHNIVFMPVIGKRHEGKQLYTFGRIVIYIDRGVVFVQGEKTWVPTSLQSLIDMAK
partner: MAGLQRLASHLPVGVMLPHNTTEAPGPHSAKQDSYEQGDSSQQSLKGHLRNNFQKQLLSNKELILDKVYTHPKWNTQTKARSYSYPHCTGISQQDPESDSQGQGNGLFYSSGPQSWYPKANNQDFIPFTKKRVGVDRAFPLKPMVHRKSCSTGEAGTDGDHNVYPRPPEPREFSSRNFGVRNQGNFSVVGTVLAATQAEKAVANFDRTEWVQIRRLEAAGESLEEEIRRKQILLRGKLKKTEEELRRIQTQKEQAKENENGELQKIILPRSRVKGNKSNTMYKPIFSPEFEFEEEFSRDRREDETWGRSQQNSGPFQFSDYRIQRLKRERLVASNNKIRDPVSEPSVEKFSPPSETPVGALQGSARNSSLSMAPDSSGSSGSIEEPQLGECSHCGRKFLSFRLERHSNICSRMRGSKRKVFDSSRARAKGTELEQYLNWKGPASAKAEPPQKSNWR
B2: Breast cancer anti-estrogen resistance protein 3 (Homo sapiens), O75815-1 (parent)
chain: MAAGKFASLPRNMPVNHQFPLASSMDLLSSRSPLAEHRPDAYQDVSIHGTLPRKKKGPPPIRSCDDFSHMGTLPHSKSPRQNSPVTQDGIQESPWQDRHGETFTFRDPHLLDPTVEYVKFSKERHIMDRTPEKLKKELEEELLLSSEDLRSHAWYHGRIPRQVSENLVQRDGDFLVRDSLSSPGNFVLTCQWKNLAQHFKINRTVLRLSEAYSRVQYQFEMESFDSIPGLVRCYVGNRRPISQQSGAIIFQPINRTVPLRCLEEHYGTSPGQAREGSLTKGRPDVAKRLSLTMGGVQAREQNLPRGNLLRNKEKSGSQPACLDHMQDRRALSLKAHQSESYLPIGCKLPPQSSGVDTSPCPNSPVFRTGSEPALSPAVVRRVSSDARAGEALRGSDSQLCPKPPPKPCKVPFLKVPSSPSAWLNSEANYCELNPAFATGCGRGAKLPSCAQGSHTELLTAKQNEAPGPRNSGVNYLILDDDDRERPWEPAAAQMEKGQWDKGEFVTPLLETVSSFRPNEFESKFLPPENKPLETAMLKRAKELFTNNDPKVIAQHVLSMDCRVARILGVSEEMRRNMGVSSGLELITLPHGHQLRLDIIERHNTMAIGIAVDILGCTGTLEDRAATLSKIIQVAVELKDSMGDLYSFSALMKALEMPQITRLEKTWTALRHQYTQTAILYEKQLKPFSKLLHEGRESTCVPPNNVSVPLLMPLVTLMERQAVTFEGTDMWEKNDQSCEIMLNHLATARFMAEAADSYRMNAERILAGFQPDEEMNEICKTEFQMRLLWGSKGAQVNQTERYEKFNQILTALSRKLEPPPVKQAEL
partner: B2 chain
B3: Glycodelin (Homo sapiens), P09466 (parent)
chain: MLCLLLTLGVALVCGVPAMDIPQTKQDLELPKLAGTWHSMAMATNNISLMATLKAPLRVHITSLLPTPEDNLEIVLHRWENNSCVEKKVLGEKTENPKKFKINYTVANEATLLDTDYDNFLFLCLQDTTTPIQSMMCQYLARVLVEDDEIMQGFIRAFRPLPRHLWYLLDLKQMEEPCRF
partner: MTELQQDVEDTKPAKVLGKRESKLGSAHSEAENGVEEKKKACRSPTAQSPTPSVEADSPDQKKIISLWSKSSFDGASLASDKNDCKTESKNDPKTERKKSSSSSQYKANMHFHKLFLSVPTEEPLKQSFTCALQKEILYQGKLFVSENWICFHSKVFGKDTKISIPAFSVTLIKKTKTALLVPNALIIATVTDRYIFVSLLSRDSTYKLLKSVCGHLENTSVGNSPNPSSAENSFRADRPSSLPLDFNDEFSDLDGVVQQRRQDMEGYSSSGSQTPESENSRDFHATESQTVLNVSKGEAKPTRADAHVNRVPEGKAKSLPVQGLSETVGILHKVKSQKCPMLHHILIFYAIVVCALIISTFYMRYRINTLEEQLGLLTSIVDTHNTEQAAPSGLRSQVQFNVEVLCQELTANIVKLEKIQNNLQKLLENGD
B4: E3 ubiquitin-protein ligase CCNB1IP1 (Homo sapiens), Q9NPC3 (parent)
chain: MSLCEDMLLCNYRKCRIKLSGYAWVTACSHIFCDQHGSGEFSRSPAICPACNSTLSGKLDIVRTELSPSEEYKAMVLAGLRPEIVLDISSRALAFWTYQVHQERLYQEYNFSKAEGHLKQMEKIYTQQIQSKDVELTSMKGEVTSMKKVLEEYKKKFSDISEKLMERNRQYQKLQGLYDSLRLRNITIANHEGTLEPSMIAQSGVLGFPLGNNSKFPLDNTPVRNRGDGDGDFQFRPFFAGSPTAPEPSNSFFSFVSPSRELEQQQVSSRAFKVKRI
partner: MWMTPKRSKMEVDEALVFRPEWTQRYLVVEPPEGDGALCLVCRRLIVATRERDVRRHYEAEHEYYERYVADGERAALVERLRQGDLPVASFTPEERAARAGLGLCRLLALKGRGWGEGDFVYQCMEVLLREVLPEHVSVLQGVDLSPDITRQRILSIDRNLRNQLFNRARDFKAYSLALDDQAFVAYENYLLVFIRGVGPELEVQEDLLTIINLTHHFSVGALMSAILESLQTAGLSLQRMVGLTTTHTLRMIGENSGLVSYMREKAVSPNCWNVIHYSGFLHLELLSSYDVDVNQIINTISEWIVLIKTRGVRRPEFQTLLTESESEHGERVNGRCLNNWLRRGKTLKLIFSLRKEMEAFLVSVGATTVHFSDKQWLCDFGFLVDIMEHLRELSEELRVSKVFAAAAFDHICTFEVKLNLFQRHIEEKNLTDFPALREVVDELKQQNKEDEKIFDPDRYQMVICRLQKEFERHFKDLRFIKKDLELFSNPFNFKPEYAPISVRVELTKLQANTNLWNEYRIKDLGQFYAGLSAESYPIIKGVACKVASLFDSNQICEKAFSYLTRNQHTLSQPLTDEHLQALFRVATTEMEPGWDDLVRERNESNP

Variants of: B1
Details: with zc21c_human ZC2HC1C

effect of a mutation on the interaction	Variant
with no effect	S688L
with no effect	R8Q

Variants of: B2
Details: with bcar3_human BCAR3, O75815

effect of a mutation on the interaction	Variant
with no effect	P404S

Variants of: B3
Details: with grm2b_human GRAMD2B

effect of a mutation on the interaction	Variant
with no effect	MLCLLLTLGVALVCGVPAMDIPQTKQDLELPKLAGTWHSMAMATNNISLMATLKAPLRVHITSLLPTPEDNLEIVLHRWENNSCVEKKVLGEKTENPKKFKINYTVANEATLLDTDYDNFLFLCLKDTTTPIQSMMCQYLARVLVEDDEIMQGFIRAFRPLPRHLWYLLDLKQMEEPCRF [Q126K]

Variants of: B4
Details: with epmip_human EPM2AIP1, Q7L775

Variant	effect of a mutation on the interaction
MSLCEDMLLCNYRKCRIKLSGYAWVTACSHIFCDQHGSGEFSRSPAICPACNSTLSGKLDIVRTELSPSEEYKAMVLAGLRPEIVLDISSRALAFWTYQVHQEHLYQEYNFSKAEGHLKQMEKIYTQQIQSKDVELTSMKGEVTSMKKVLEEYKKKFSDISEKLMERNRQYQKLQGLYDSLRLRNITIANHEGTLEPSMIAQSGVLGFPLGNNSKFPLDNTPVRNRGDGDGDFQFRPFFAGSPTAPEPSNSFFSFVSPSRELEQQQVSSRAFKVKRI [R104H]	disrupting interaction strength
MSLCEDMLLCNYRKCRIKLSGYAWVTACSHIFCDQHGSGELSRSPAICPACNSTLSGKLDIVRTELSPSEEYKAMVLAGLRPEIVLDISSRALAFWTYQVHQERLYQEYNFSKAEGHLKQMEKIYTQQIQSKDVELTSMKGEVTSMKKVLEEYKKKFSDISEKLMERNRQYQKLQGLYDSLRLRNITIANHEGTLEPSMIAQSGVLGFPLGNNSKFPLDNTPVRNRGDGDGDFQFRPFFAGSPTAPEPSNSFFSFVSPSRELEQQQVSSRAFKVKRI [F41L]	with no effect
MSLCEDMLLCNYRKCRIKLSGYAWVTACSHIFCDQHGSGEFSRSPAICPACNSTLSGKLDIVRTELSPSEEYKAMVLAGLRPEIVLDISSRALAFWTYQVHQERLHQEYNFSKAEGHLKQMEKIYTQQIQSKDVELTSMKGEVTSMKKVLEEYKKKFSDISEKLMERNRQYQKLQGLYDSLRLRNITIANHEGTLEPSMIAQSGVLGFPLGNNSKFPLDNTPVRNRGDGDGDFQFRPFFAGSPTAPEPSNSFFSFVSPSRELEQQQVSSRAFKVKRI [Y106H]	with no effect

Other lines, results leading:

effect of a mutation on the interaction	Variant
with no effect	MSLCEDMLLCNYRKCRIKLSGYAWVTACSHIFCDQHGSGEFSRSPAICPACNSTLSGKLDIVRTELSPSEEYKAMVLAGLRPEIVLDISSRALAFWTYQVHQERLYQEYNFSKAEGHLKQMEKIYTQQIQSKDVELTSMKGEVTSMKKVLEEYKKKFSDISEKLMERNRQYQKLQGLYDSLRLRNIAIANHEGTLEPSMIAQSGVLGFPLGNNSKFPLDNTPVRNRGDGDGDFQFRPFFAGSPTAPEPSNSFFSFVSPSRELEQQQVSSRAFKVKRI [T187A]
with no effect	MSLCEDMLLCNYRKCRIKLSGYAWVTACSHIFCDQHGSGEFSRSPAICPACNSTLSGKLDIVRTELSPSEEYKAMVLAGLRPEIVLDISSRALAFWTYQVHQERLYQEYNFSKAEGHLKQMEKIYTQQIQSKDVELTSMKGEVTSMKKVLEEYKKKFSDISEKLMERNRQYQKLQGLYDSLRLRNITIANHEGTLEPSMIAQSGVLGFPLGDNSKFPLDNTPVRNRGDGDGDFQFRPFFAGSPTAPEPSNSFFSFVSPSRELEQQQVSSRAFKVKRI [N212D]
